The values that follow come from patent US20210347913A1 (CRISPR THERAPEUTICS, published 2021).

In assay [1] the target is T1, PTK7 on PTK7 positive cell line SaOS-2 (osteosarcoma) (UniProt Q13308 31-1070, limits assumed).
T1 sequence (looked up): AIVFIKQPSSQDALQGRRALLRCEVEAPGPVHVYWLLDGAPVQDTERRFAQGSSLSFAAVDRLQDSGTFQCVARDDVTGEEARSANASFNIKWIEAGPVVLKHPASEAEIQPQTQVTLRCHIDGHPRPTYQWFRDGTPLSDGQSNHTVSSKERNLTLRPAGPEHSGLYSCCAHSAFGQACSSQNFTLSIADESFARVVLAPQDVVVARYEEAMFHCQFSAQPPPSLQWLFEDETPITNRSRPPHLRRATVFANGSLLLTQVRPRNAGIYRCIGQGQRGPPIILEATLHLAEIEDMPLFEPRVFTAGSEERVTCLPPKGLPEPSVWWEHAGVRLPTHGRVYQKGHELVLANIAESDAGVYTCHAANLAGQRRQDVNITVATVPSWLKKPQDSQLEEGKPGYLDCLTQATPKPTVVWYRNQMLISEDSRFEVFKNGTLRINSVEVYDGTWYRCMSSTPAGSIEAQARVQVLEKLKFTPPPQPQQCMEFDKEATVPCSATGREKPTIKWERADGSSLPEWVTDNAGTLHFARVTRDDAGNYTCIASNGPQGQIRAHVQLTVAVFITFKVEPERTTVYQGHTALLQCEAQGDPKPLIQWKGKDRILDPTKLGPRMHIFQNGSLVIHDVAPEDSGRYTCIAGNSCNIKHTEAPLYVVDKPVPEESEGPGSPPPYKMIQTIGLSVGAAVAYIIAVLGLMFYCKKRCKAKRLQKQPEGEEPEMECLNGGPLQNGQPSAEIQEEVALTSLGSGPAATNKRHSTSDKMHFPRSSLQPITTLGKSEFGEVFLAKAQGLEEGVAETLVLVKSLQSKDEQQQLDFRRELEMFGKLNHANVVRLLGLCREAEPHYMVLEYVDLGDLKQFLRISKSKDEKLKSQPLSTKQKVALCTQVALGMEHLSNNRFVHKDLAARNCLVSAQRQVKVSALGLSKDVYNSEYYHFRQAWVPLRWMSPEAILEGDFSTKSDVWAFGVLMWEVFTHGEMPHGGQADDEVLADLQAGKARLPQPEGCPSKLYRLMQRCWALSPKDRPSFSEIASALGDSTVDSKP
The assay is described as follows: cell-based or functional assay.

Assay [2] deals with T1, PTK7 on PTK7 positive cell line SaOS-2 …. Briefly: cell-based or functional assay. The source holds these as a separate data set.
Assay [3] has as its target T2, recombinant human PTK7.Fc (R and D Systems, catalog #9799-TK) (human, UniProt Q13308 31-704, limits assumed).
T2 construct: Bought reagent; also called soluble recombinant human PTK7.Fc; soluble antigen PTK7; not shown: Fc part of the bought fusion (detected with anti-human Fc)
T2 sequence (looked up): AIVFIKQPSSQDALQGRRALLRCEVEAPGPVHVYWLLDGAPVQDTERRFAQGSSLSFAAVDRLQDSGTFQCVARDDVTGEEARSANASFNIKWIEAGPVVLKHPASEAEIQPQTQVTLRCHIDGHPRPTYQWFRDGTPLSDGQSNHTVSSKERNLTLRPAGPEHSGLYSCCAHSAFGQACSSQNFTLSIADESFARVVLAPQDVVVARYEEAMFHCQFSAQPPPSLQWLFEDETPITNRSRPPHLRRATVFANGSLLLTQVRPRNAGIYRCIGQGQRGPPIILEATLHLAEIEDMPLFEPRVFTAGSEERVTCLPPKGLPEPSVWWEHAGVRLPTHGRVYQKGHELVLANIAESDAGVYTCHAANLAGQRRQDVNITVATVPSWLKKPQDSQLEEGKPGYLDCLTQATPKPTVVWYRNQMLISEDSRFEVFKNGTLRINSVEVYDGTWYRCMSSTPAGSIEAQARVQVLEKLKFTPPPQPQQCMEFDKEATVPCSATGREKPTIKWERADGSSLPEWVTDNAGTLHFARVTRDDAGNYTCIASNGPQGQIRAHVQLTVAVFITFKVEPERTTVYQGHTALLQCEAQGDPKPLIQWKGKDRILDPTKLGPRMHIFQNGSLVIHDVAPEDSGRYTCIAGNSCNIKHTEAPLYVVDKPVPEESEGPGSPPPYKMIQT
Briefly: flow cytometry, percent of CAR T cells positive for 10 ug/mL PTK7.Fc. On the procedure:
In addition to detecting surface CAR expression, the ability of the CAR T cells and masked CAR T cells to detect target antigen was also determined. Live CAR T cells were gated by their forward scatter (FSC) and side scatter (SSC) profiles, and with DAPI dye (Invitrogen, catalog #: D3571). The cells were then stained with 10 μg/mL recombinant human PTK7.Fc (R and D Systems, catalog #9799-TK Lot DHMCO219041) as described above in Example 3, and with mouse anti-human.Fc conjugated to APC (Biolegend cat #409305) as secondary antibody for detection (FIG. 3).
For orientation: In flow cytometry, cells or beads pass a laser one at a time.

Where a chain is given by its changes, count along the chain named. Numbers in names are those of the source.

B1: CTX181.M5 (other)
chain: QGCTYPSWVAYIRFCGSSGGSGGSGGSGGGPLGLAGGSSGQVQLVESGGGVVQPGRSLRLSCAASGFTFSSYGMHWVRQAPGKGLEWVAVIWDDGSNKYYVDSVKGRFTISRDNSKNTLYLQMNSLRAEDTAVYYCARDDYYGSGSFNSYYGTDVWGQGTTVTVSSGGGGSGGGGSGGGGSEIVLTQSPATLSLSPGERATLSCRASQSVSIYLAWYQQKPGQAPRLLIYDASNRATGIPARFSGSGSGTDFTLTISSLEPEDFAVYYCQQRSNWPPFTFGPGTKVDIKSAAAFVPVFLPAKPTTTPAPRPPTPAPTIASQPLSLRPEACRPAAGGAVHTRGLDFACDIYIWAPLAGTCGVLLLSLVITLYCNHRNRSKRSRLLHSDYMNMTPRRPGPTRKHYQPYAPPRDFAAYRSRVKFSRSADAPAYQQGQNQLYNELNLGRREEYDVLDKRRGRDPEMGGKPRRKNPQEGLYNELQKDKMAEAYSEIGMKGERRRGKGHDGLYQGLSTATKDTYDALHMQALPPR
notes: Masked chimeric antigen receptor on the surface of TRAC-/B2M- human T cells; entry without signal peptide
Turning to B1, in assay [1], the “% Cell killing at E:T = 1:0.5” value came to 29.6% and the “% Cell killing at E:T = 1:1” value was -0.8%. In assay [2], the “IFNγ (pg/mL) at E:T = 1:0.5” value was 523 pg/mL and the “IFNγ (pg/mL) at E:T = 1:1” value stood at 459 pg/mL. In assay [3], the “% Antigen detection” value is 18.5%.

B2: CTX181.M4 (other)
chain: B1 chain with Y5F, S7N, W8T, V9T, A10M, Y11Q, I12R, R13T
notes: as for B1
On to B2, for which, in assay [1], the “% Cell killing at E:T = 1:0.5” value turned out to be 78.4% and the “% Cell killing at E:T = 1:1” value amounted to 54.6%. In assay [2], the “IFNγ (pg/mL) at E:T = 1:0.5” value was 9550 pg/mL and the “IFNγ (pg/mL) at E:T = 1:1” value is 13200 pg/mL. Further, in assay [3], the “% Antigen detection” value was determined as 32.6%.

B3: CTX181.M9 (other)
chain: QGCHIGKRPVPCLWIGSSGGSGGSGGSGGGPLGLAGGSSGQVQLVESGGGVVQPGRSLRLSCAASGFTFSSYGMHWVRQAPGKGLEWVAVIWDDGSNKYYVDSVKGRFTISRDNSKNTLYLQMNSLRAEDTAVYYCARDDYYGSGSFNSYYGTDVWGQGTTVTVSSGGGGSGGGGSGGGGSEIVLTQSPATLSLSPGERATLSCRASQSVSIYLAWYQQKPGQAPRLLIYDASNRATGIPARFSGSGSGTDFTLTISSLEPEDFAVYYCQQRSNWPPFTFGPGTKVDIKSAAAFVPVFLPAKPTTTPAPRPPTPAPTIASQPLSLRPEACRPAAGGAVHTRGLDFACDIYIWAPLAGTCGVLLLSLVITLYCNHRNRSKRSRLLHSDYMNMTPRRPGPTRKHYQPYAPPRDFAAYRSRVKFSRSADAPAYQQGQNQLYNELNLGRREEYDVLDKRRGRDPEMGGKPRRKNPQEGLYNELQKDKMAEAYSEIGMKGERRRGKGHDGLYQGLSTATKDTYDALHMQALPPR
notes: as for B1
As to B3, in assay [3], the “% Antigen detection” value is 35.1%.

B4: CTX181 (unmasked CAR) (other)
chain: QVQLVESGGGVVQPGRSLRLSCAASGFTFSSYGMHWVRQAPGKGLEWVAVIWDDGSNKYYVDSVKGRFTISRDNSKNTLYLQMNSLRAEDTAVYYCARDDYYGSGSFNSYYGTDVWGQGTTVTVSSGGGGSGGGGSGGGGSEIVLTQSPATLSLSPGERATLSCRASQSVSIYLAWYQQKPGQAPRLLIYDASNRATGIPARFSGSGSGTDFTLTISSLEPEDFAVYYCQQRSNWPPFTFGPGTKVDIKSAAAFVPVFLPAKPTTTPAPRPPTPAPTIASQPLSLRPEACRPAAGGAVHTRGLDFACDIYIWAPLAGTCGVLLLSLVITLYCNHRNRKRGRKKLLYIFKQPFMRPVQTTQEEDGCSCRFPEEEEGGCELRVKFSRSADAPAYQQGQNQLYNELNLGRREEYDVLDKRRGRDPEMGGKPRRKNPQEGLYNELQKDKMAEAYSEIGMKGERRRGKGHDGLYQGLSTATKDTYDALHMQALPPR
notes: Chimeric antigen receptor (Ab181 scFv) on the surface of TRAC-/B2M- human T cells; entry without signal peptide; also called anti-PTK7 CAR; unmasked CAR CTX181
As for B4, in assay [1], the “% Cell killing at E:T = 1:0.5” value worked out at 97.1% and the “% Cell killing at E:T = 1:1” value came to 96.6%. Besides, in assay [2], the “IFNγ (pg/mL) at E:T = 1:0.5” value stood at 22300 pg/mL and the “IFNγ (pg/mL) at E:T = 1:1” value turned out to be 34900 pg/mL. The “% Antigen detection” value in assay [3] is 61.9%.
